In publication PMC4361793:

Key:
[1] = molecular target: mussel foot protein-3 slow (mfp-3s), hydrophobic variant (Mytilus californianus); test: surface forces apparatus
[2] = molecular target: mussel foot protein-3 slow (mfp-3s), hydrophobic variant (Mytilus californianus); test: QCM-D

Substance | cohesive energy Wc (tc ~ 2 min) [1] | cohesive energy Wc of mfp-3s films with COL1A1 between them [1] | adsorbed hydrated mass after adding mfp-3s to TiO2 pre-exposed to COL1A1 [2] | total adsorbed hydrated mass of COL1A1/mfp-3s on TiO2 [2]
mussel foot protein-3 slow (mfp-3s), hydrophobic variant (natural protein) | 5.4 mJ/m^2 |  |  | 
rat-tail tropocollagen type-1 (COL1A1) (from UniProt P02454 152-1207; P02466 86-1125) (natural protein) |  | 7.2 mJ/m^2 | 209 ng/cm^2 | 445 ng/cm^2
